T1: FRETS-VWF73, P04275
T1 chain: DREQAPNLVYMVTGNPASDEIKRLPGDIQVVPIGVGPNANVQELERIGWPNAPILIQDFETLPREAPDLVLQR


How the values were obtained:
FRETS-VWF73, P04275 = molecular target: T1, FRETS-VWF73, P04275
[1] = molecular target: T2, von Willebrand factor derived from human plasma (human, UniProt P04275 764-2813); assay: ELISA, plasma VWF immobilized on plate, relative to wild type W688X
T2 construct: mature; also called VWF; natural substrate VWF
Description: Each of the purified mutants of Example 3 was evaluated for their binding ability to VWF derived from human plasma immobilized on ELISA plate as described in Non-patent reference 8. The concentration was normalized by sandwich ELISA using the anti-human ADAMTS-13 rabbit polyclonal antibody and an HRP labeled form of the anti-FLAGM2 murine monoclonal antibody (SIGMA CORPORATION) as described above and the VWF binding ability per unit concentration was quantified. Finally, the mutants were evaluated for a relative activity as compared to the specific activity of wild type W688X with no alanine substitution, the specific activity of which is 1.

[2] = molecular target: immunoglobulin G (IgG) fractions isolated from acquired TTP patients

binding result [1] | Binder | cleaving activity to FRETS-VWF73, relative activity against wild type W688X (FRETS-VWF73, P04275) | cleaving activity to FRETS-VWF73 per 1 min (ΔFU/min) with and without patient antibodies [2]
binds | ADAMTS-13W688X mutant R349A (enzyme, human, UniProt Q76LX8 75-688, looked up, Disintegrin-like domain mutant; also called R349(11); not shown: C-terminal FLAG tag) AAGGILHLELLVAVGPDVFQAHQEDTERYVLTNLNIGAELLRDPSLGAQFRVHLVKMVILTEPEGAPNITANLTSSLLSVCGWSQTINPEDDTDPGHADLVLYITRFDLELPDGNRQVRGVTQLGGACSPTWSCLITEDTGFDLGVTIAHEIGHSFGLEHDGAPGSGCGPSGHVMASDGAAPRAGLAWSPCSRRQLLSLLSAGRARCVWDPPRPQPGSAGHPPDAQPGLYYSANEQCRVAFGPKAVACTFAREHLDMCQALSCHTDPLDQSSCSALLVPLLDGTECGVEKWCSKGRCRSLVELTPIAAVHGRWSSWGPRSPCSRSCGGGVVTRRRQCNNPRPAFGGRACVGADLQAEMCNTQACEKTQLEFMSQQCARTDGQPLRSSPGGASFYHWGAAVPHSQGDALCRHMCRAIGESFIMKRGDSFLDGTRCMPSGPREDGTLSLCVSGSCRTFGCDGRMDSQQVWDRCQVCGGDNSTCSPRKGSFTAGRAREYVTFLTVTPNLTSVYIANHRPLFTHLAVRIGGRYVVAGKMSISPNTTYPSLLEDGRVEYRVALTEDRLPRLEEIRIWGPLQEDADIQVYRRYGEEYGNLTRPDITFTYFQPKPRQAWVW | led to the significantly reduced enzyme activity | 
 | ADAMTS-13W688X mutant E634A (protein) AAGGILHLELLVAVGPDVFQAHQEDTERYVLTNLNIGAELLRDPSLGAQFRVHLVKMVILTEPEGAPNITANLTSSLLSVCGWSQTINPEDDTDPGHADLVLYITRFDLELPDGNRQVRGVTQLGGACSPTWSCLITEDTGFDLGVTIAHEIGHSFGLEHDGAPGSGCGPSGHVMASDGAAPRAGLAWSPCSRRQLLSLLSAGRARCVWDPPRPQPGSAGHPPDAQPGLYYSANEQCRVAFGPKAVACTFAREHLDMCQALSCHTDPLDQSSCSRLLVPLLDGTECGVEKWCSKGRCRSLVELTPIAAVHGRWSSWGPRSPCSRSCGGGVVTRRRQCNNPRPAFGGRACVGADLQAEMCNTQACEKTQLEFMSQQCARTDGQPLRSSPGGASFYHWGAAVPHSQGDALCRHMCRAIGESFIMKRGDSFLDGTRCMPSGPREDGTLSLCVSGSCRTFGCDGRMDSQQVWDRCQVCGGDNSTCSPRKGSFTAGRAREYVTFLTVTPNLTSVYIANHRPLFTHLAVRIGGRYVVAGKMSISPNTTYPSLLEDGRVEYRVALTADRLPRLEEIRIWGPLQEDADIQVYRRYGEEYGNLTRPDITFTYFQPKPRQAWVW |  | depending on patient antibody, K608A, E634A and D635A had a sufficient enzymatic activity
 | ADAMTS-13W688X mutant D635A (protein) AAGGILHLELLVAVGPDVFQAHQEDTERYVLTNLNIGAELLRDPSLGAQFRVHLVKMVILTEPEGAPNITANLTSSLLSVCGWSQTINPEDDTDPGHADLVLYITRFDLELPDGNRQVRGVTQLGGACSPTWSCLITEDTGFDLGVTIAHEIGHSFGLEHDGAPGSGCGPSGHVMASDGAAPRAGLAWSPCSRRQLLSLLSAGRARCVWDPPRPQPGSAGHPPDAQPGLYYSANEQCRVAFGPKAVACTFAREHLDMCQALSCHTDPLDQSSCSRLLVPLLDGTECGVEKWCSKGRCRSLVELTPIAAVHGRWSSWGPRSPCSRSCGGGVVTRRRQCNNPRPAFGGRACVGADLQAEMCNTQACEKTQLEFMSQQCARTDGQPLRSSPGGASFYHWGAAVPHSQGDALCRHMCRAIGESFIMKRGDSFLDGTRCMPSGPREDGTLSLCVSGSCRTFGCDGRMDSQQVWDRCQVCGGDNSTCSPRKGSFTAGRAREYVTFLTVTPNLTSVYIANHRPLFTHLAVRIGGRYVVAGKMSISPNTTYPSLLEDGRVEYRVALTEARLPRLEEIRIWGPLQEDADIQVYRRYGEEYGNLTRPDITFTYFQPKPRQAWVW |  | depending on patient antibody, K608A, E634A and D635A had a sufficient enzymatic activity
binds | ADAMTS-13W688X mutant R498A (enzyme, human, UniProt Q76LX8 75-688, looked up, Cysteine-rich domain mutant; also called R498(29); not shown: C-terminal FLAG tag) AAGGILHLELLVAVGPDVFQAHQEDTERYVLTNLNIGAELLRDPSLGAQFRVHLVKMVILTEPEGAPNITANLTSSLLSVCGWSQTINPEDDTDPGHADLVLYITRFDLELPDGNRQVRGVTQLGGACSPTWSCLITEDTGFDLGVTIAHEIGHSFGLEHDGAPGSGCGPSGHVMASDGAAPRAGLAWSPCSRRQLLSLLSAGRARCVWDPPRPQPGSAGHPPDAQPGLYYSANEQCRVAFGPKAVACTFAREHLDMCQALSCHTDPLDQSSCSRLLVPLLDGTECGVEKWCSKGRCRSLVELTPIAAVHGRWSSWGPRSPCSRSCGGGVVTRRRQCNNPRPAFGGRACVGADLQAEMCNTQACEKTQLEFMSQQCARTDGQPLRSSPGGASFYHWGAAVPHSQGDALCRHMCRAIGESFIMKAGDSFLDGTRCMPSGPREDGTLSLCVSGSCRTFGCDGRMDSQQVWDRCQVCGGDNSTCSPRKGSFTAGRAREYVTFLTVTPNLTSVYIANHRPLFTHLAVRIGGRYVVAGKMSISPNTTYPSLLEDGRVEYRVALTEDRLPRLEEIRIWGPLQEDADIQVYRRYGEEYGNLTRPDITFTYFQPKPRQAWVW | led to the significantly reduced enzyme activity | 

Source: patent publication US8685665 (CHEMO SERO THERAPEUTIC RESEARCH INSTITUTE, dated 2014)
